Key:
[1] = target: Met-Arg-Human Proinsulin Analog (B28 Lys, B29 Pro) (human) (UniProt P01308)
[2] = target: Met-Asp-human growth hormone (human) (UniProt P01241)

bovine dipeptidylaminopeptidase 1 (enzyme)
extent of conversion of MR-KPB-hPI to KPB-hPI (reverse phase HPLC) [1]: 98% | human growth hormone (hGH) conversion yield (reverse phase chromatography) [2]: 37%
